The record followed here is US20240287154A1, “MC3R AGONIST PEPTIDES” (The Regents of the University of Michigan, priority 2021, published 2024).

Non-standard residues stand in square brackets, D forms with d. Residues, ends and D or L forms follow the SMILES beside them. PKcap1 = N-terminal cap C18 diacid-γGlu-mPEG2; PKcap2 = N-terminal cap Aryl(4-I)-Gly-mPEG2; Bip = N[C@@H](Cc1ccc(-c2ccccc2)cc1)C(=O)O; Phe(4-I) = N[C@@H](Cc1ccc(I)cc1)C(=O)O; Nle = CCCC[C@H](N)C(=O)O; Aib = CC(C)(N)C(=O)O

The labels stand for the following.
B1: CTX-1122 (peptide)
peptide: Ac-[Nle][dA]HFR[dW]DRFG-OH
SMILES: CCCC[C@H](NC(C)=O)C(=O)N[C@H](C)C(=O)N[C@@H](Cc1c[nH]cn1)C(=O)N[C@@H](Cc1ccccc1)C(=O)N[C@@H](CCCNC(=N)N)C(=O)N[C@H](Cc1c[nH]c2ccccc12)C(=O)N[C@@H](CC(=O)O)C(=O)N[C@@H](CCCNC(=N)N)C(=O)N[C@@H](Cc1ccccc1)C(=O)NCC(=O)O
B2: CTX-1148 (peptide)
peptide: PKcap2-G[Nle][dA]HFR[dW]DRFG-OH
B3: CTX-1149 (PKcap1, SEQ ID NO 40) (peptide)
peptide: PKcap1-GV[Nle][dA]HFR[dW]DRFG-OH
B4: CTX-1150 (peptide)
peptide: PKcap2-GV[Nle][dA]HFR[dW]DRFG-OH
B5: CTX-1147 (peptide)
peptide: PKcap1-G[Nle][dA]HFR[dW]DRFG-OH
B6: CTX-1171 (peptide)
peptide: H-[dY]V[Nle][dA]H[Phe(4-I)]R[dW]D-NH2
SMILES: CCCC[C@H](NC(=O)[C@@H](NC(=O)[C@H](N)Cc1ccc(O)cc1)C(C)C)C(=O)N[C@H](C)C(=O)N[C@@H](Cc1c[nH]cn1)C(=O)N[C@@H](Cc1ccc(I)cc1)C(=O)N[C@@H](CCCNC(=N)N)C(=O)N[C@H](Cc1c[nH]c2ccccc12)C(=O)N[C@@H](CC(=O)O)C(N)=O
B7: CTX-1154 (peptide)
peptide: PKcap2-G[Nle][dA]HFR[dW]DR[dF]G-OH
B8: CTX-1155 (peptide)
peptide: PKcap1-G[dY]V[Nle][dA]HFR[dW]D[dR]FG-OH
B9: CTX-1168 (peptide)
peptide: Ac-[Nle][dA]H[Bip]R[dW]DRFG-NH2
SMILES: CCCC[C@H](NC(C)=O)C(=O)N[C@H](C)C(=O)N[C@@H](Cc1c[nH]cn1)C(=O)N[C@@H](Cc1ccc(-c2ccccc2)cc1)C(=O)N[C@@H](CCCNC(=N)N)C(=O)N[C@H](Cc1c[nH]c2ccccc12)C(=O)N[C@@H](CC(=O)O)C(=O)N[C@@H](CCCNC(=N)N)C(=O)N[C@@H](Cc1ccccc1)C(=O)NCC(N)=O
B10: CTX-1153 (peptide)
peptide: PKcap1-G[Nle][dA]HFR[dW]DR[dF]G-OH
B11: CTX-1156 (peptide)
peptide: PKcap2-G[dY]V[Nle][dA]HFR[dW]D[dR]FG-OH
B12: CTX-1151 (peptide)
peptide: PKcap1-G[dY]V[Nle][dA]HFR[dW]DRFG-OH

The target of the first test is human MC3R (human, UniProt P41968 1-323). As to the kind of experiment: cell-based or functional assay.
human MC3R, sequence (P41968 whole entry): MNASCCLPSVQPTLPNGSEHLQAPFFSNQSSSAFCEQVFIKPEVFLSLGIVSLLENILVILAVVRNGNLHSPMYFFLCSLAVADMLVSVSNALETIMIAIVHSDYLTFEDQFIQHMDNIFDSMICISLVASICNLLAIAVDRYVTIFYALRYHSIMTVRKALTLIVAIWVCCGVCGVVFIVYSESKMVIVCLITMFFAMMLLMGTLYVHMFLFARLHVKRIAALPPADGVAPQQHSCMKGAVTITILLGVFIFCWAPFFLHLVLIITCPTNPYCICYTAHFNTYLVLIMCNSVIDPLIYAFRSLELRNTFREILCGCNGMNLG
Details: not given
Turning to B1, the “MC3R cAMP (EC50)” value was found to be 1.2 nM and the “MC3R selectivity (relative to MC4R)” value came to 7700. For B2, the “MC3R cAMP (EC50)” value came to 1.5 nM and the “MC3R selectivity (relative to MC4R)” value was determined as 1200.

Take B3: the “MC3R cAMP (EC50)” value turned out to be 313 nM and the “MC3R selectivity (relative to MC4R)” value came out at 215. On the same counts, the results for B4 are 2.9 nM and 577. Consider B5, for which the “MC3R cAMP (EC50)” value amounted to 556 nM and the “MC3R selectivity (relative to MC4R)” value worked out at 335. For B6, the “MC3R cAMP (EC50)” value was determined as 54 nM and the “MC3R selectivity (relative to MC4R)” value is 234.

For the molecule B7, the “MC3R cAMP (EC50)” value amounted to 5.8 nM and the “MC3R selectivity (relative to MC4R)” value was 1070. On the same counts, the results for B8 are 3130 nM and 415. With B9, the “MC3R cAMP (EC50)” value worked out at 28.6 nM and the “MC3R selectivity (relative to MC4R)” value was found to be 485.

B10: the “MC3R cAMP (EC50)” value amounted to 5120 nM and the “MC3R selectivity (relative to MC4R)” value stood at 0.13. On to B11, for which the “MC3R cAMP (EC50)” value turned out to be 8.6 nM and the “MC3R selectivity (relative to MC4R)” value stood at 86. For B12 the same measures were 299 nM and 126.

The target in another test is human MC4R (Homo sapiens, UniProt P32245). As to the kind of experiment: Intracellular cAMP levels in live cells, MC3R selectivity relative to MC4R. The class given is cell-based. Conditions: cAMP assays in human MC3R and human MC4R stable cell lines. How it is done: The stable cell lines were grown and maintained in selection media consisting of Dulbecco's modified Eagle media (DMEM) with 4.5 g/l D-glucose, and 4 mM L-glutamine (Thermo Fisher Scientific, Waltham, MA), supplemented with 10% fetal bovine serum, 100 units/ml penicillin, 100 μg/ml streptomycin, 2.5 μg/ml amphotericin B, 200 μg/ml hygromycin B (for positive selection of the GScAMP22f luciferase reporter), and Geneticin™ (G418) 700 μg/ml (for MC3R or MC4R selection). Actual serum concentration during the assay is estimated to be about 1%. Cell line identity is routinely verified by qPCR and MC3R- and MC4R-specific oligonucleotides.
human MC4R, sequence (P32245 whole entry): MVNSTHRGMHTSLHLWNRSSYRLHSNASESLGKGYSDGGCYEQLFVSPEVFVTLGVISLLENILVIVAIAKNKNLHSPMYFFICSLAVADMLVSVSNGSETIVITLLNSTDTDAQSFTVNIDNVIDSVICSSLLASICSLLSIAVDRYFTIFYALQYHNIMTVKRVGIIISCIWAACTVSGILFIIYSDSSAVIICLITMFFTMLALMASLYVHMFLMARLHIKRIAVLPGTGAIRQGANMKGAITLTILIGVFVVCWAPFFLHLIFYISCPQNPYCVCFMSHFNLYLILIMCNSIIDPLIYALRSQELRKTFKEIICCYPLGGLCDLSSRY
The assay for the determination of the CAMP response in live cells was described previously. […] Ccells were seeded at a density of 20,000 cells per well using 384-well poly-D lysine-coated, clear bottom, and black-wall assay plates (Corning Inc. Corning, NJ). Cells were allowed to attach to the plates for 18 to 24 h after which growth media was removed and 20 ul of 4% D-luciferin (Promega) in CO2 independent, serum-free medium (Thermo Fisher Scientific) was added to each well. […] Intracellular cAMP levels were measured using an FDSS 7000EX Functional Drug Screening System (Hamamatsu Photonics, Hamamatsu, Japan) in the Center for Chemical Genomics at the Life Sciences Institute. This instrument allowed the in-line addition of test-peptides and receptor agonists while simultaneously acquiring the luminescence signal from live cells. […] A submaximal forskolin (20 μM) concentration was also included to serve as a normalization reference to account for cell number variations and differences in assay transducer efficiency between cell lines.
With this set up it was possible to evaluate the direct agonist effect of the test-peptides on the MC3R and MC4R cell lines during measurement window 1, while the antagonist profile in the presence of EC90 α-MSH was determined on measurement window 2. […] EC50 or IC50 potency values were determined by non-linear regression by fitting the data to a sigmoid four-parameter variable slope model using the GraphPad Prism version 8.4 software package (San Diego CA).
For orientation: Changes in cAMP serve as a functional read-out for many G protein-coupled receptors.
Regarding `CCCC[C@H](NC(C)=O)C(=O)N[C@H](C)C(=O)N[C@@H](Cc1c[nH]cn1)C(=O)N[C@@H](Cc1ccccc1)C(=O)N[C@@H](CCCNC(=N)N)C(=O)N[C@H](Cc1c[nH]c2ccccc12)C(=O)N[C@@H](Cc1ccccc1)C(N)=O` [CTX-1541, Nle-D-Ala-His-Phe-Arg-D-Trp-Phe] (Ac-[Nle][dA]HFR[dW]F-NH2), the “MC3R selectivity (relative to MC4R)” value amounted to 9. Turning to `CCCC[C@H](NC(C)=O)C(=O)N[C@H](C)C(=O)N[C@@H](Cc1c[nH]cn1)C(=O)N[C@@H](Cc1ccccc1)C(=O)N[C@@H](CCCNC(=N)N)C(=O)N[C@H](Cc1c[nH]c2ccccc12)C(=O)N[C@H](Cc1ccccc1)C(N)=O` [CTX-1542, Nle-D-Ala-His-Phe-Arg-D-Trp-D-Phe] (Ac-[Nle][dA]HFR[dW][dF]-NH2), the “MC3R selectivity (relative to MC4R)” value stood at 15.

For `CCCC[C@H](NC(=O)[C@@H](NC(=O)CNC(=O)COCCOCCNC(=O)CNC(=O)CCc1ccc(I)cc1)C(C)C)C(=O)N[C@H](C)C(=O)N[C@@H](Cc1c[nH]cn1)C(=O)N[C@@H](Cc1ccccc1)C(=O)N[C@@H](CCCNC(=N)N)C(=O)N[C@H](Cc1c[nH]c2ccccc12)C(=O)N[C@@H](CC(=O)O)C(=O)N[C@@H](CCCNC(=N)N)C(=O)N[C@@H](Cc1ccccc1)C(=O)NCC(=O)O` [CTX-1150, Gly-Val-Nle-D-Ala-His-Phe-Arg-D-Trp-Asp-Arg-Phe-Gly], the “MC3R selectivity (relative to MC4R)” value amounted to 577. The same measure, in the same setting: in the case of `CCCC[C@H](NC(=O)[C@@H](NC(=O)[C@H](N)Cc1ccc(O)cc1)C(C)C)C(=O)N[C@H](C)C(=O)N[C@@H](Cc1c[nH]cn1)C(=O)N[C@@H](Cc1ccc(I)cc1)C(=O)N[C@@H](CCCNC(=N)N)C(=O)N[C@H](Cc1c[nH]c2ccccc12)C(=O)N[C@@H](CC(=O)O)C(N)=O` [CTX-1171, D-Tyr-Val-Nle-D-Ala-His-Phe(4-I)-Arg-D-Trp-Asp] (H-[dY]V[Nle][dA]H[Phe(4-I)]R[dW]D-NH2) it was 234. Take `CCCC[C@H](NC(C)=O)C(=O)N[C@H](C)C(=O)N[C@@H](Cc1c[nH]cn1)C(=O)N[C@@H](Cc1ccccc1)C(=O)N[C@@H](CCCNC(=N)N)C(=O)N[C@H](Cc1c[nH]c2ccccc12)C(=O)N[C@@H](CC(=O)O)C(=O)N[C@@H](CCCNC(=N)N)C(N)=O` [CTX-1163, Nle-D-Ala-His-Phe-Arg-D-Trp-Asp-Arg] (Ac-[Nle][dA]HFR[dW]DR-NH2): the “MC3R selectivity (relative to MC4R)” value was 282.

`CCCC[C@H](NC(C)=O)C(=O)NCC(=O)N[C@@H](Cc1c[nH]cn1)C(=O)N[C@@H](Cc1ccccc1)C(=O)N[C@@H](CCCNC(=N)N)C(=O)N[C@H](Cc1c[nH]c2ccccc12)C(=O)N[C@@H](CC(=O)O)C(=O)N[C@@H](CCCNC(=N)N)C(=O)N[C@@H](Cc1ccccc1)C(=O)NCC(=O)O` [CTX-1185, Nle-Gly-His-Phe-Arg-D-Trp-Asp-Arg-Phe-Gly] (Ac-[Nle]GHFR[dW]DRFG-OH): the “MC3R selectivity (relative to MC4R)” value was 2,312. Same read-out and setting: in the case of `CC(=O)N[C@@H](Cc1ccc(O)cc1)C(=O)N[C@H](C(=O)N[C@@H](CCC(=O)O)C(=O)NC(C)(C)C(=O)N[C@@H](Cc1c[nH]cn1)C(=O)N[C@@H](Cc1ccc(I)cc1)C(=O)N[C@@H](CCCNC(=N)N)C(=O)N[C@H](Cc1c[nH]c2ccccc12)C(=O)N[C@@H](CC(=O)O)C(=O)N[C@@H](CCCNC(=N)N)C(=O)N[C@@H](Cc1ccccc1)C(=O)NCC(=O)O)C(C)C` [CTX-1195, Tyr-Val-Glu-Aib-His-Phe(4-I)-Arg-D-Trp-Asp-Arg-Phe-Gly] (Ac-YVE[Aib]H[Phe(4-I)]R[dW]DRFG-OH) it was 51.
